Consider three molecules from patent US20210324108A1 (Hoffmann-La Roche, published 2021).

Assay [1] addresses T1, human 4-1BB on Jurkat-hu4-1BB-NFκB-luc2 reporter cells (human, UniProt Q07011 24-255). In words: cell-based or functional assay.
The target in assay [2] is T1, human 4-1BB on Jurkat-hu4-1BB-NFκB-luc2 …. In words: cell-based or functional assay. This is another data set of the same source.
The target of assay [3] is T2, recombinant human FAP (human, UniProt Q12884 26-760).
T2 construct: exact construct not described; also called FAP ECD; not shown: The histidine tag (and any linker to it) implied by capture on an anti-histidine antibody
Put plainly: SPR, huFAP captured (anti-His), Ab analyte. On the procedure:
Around 12000 resonance units (RU) of the capturing system (15 μg/ml anti-histidine antibody; Order Code: 28995056; GE Healthcare Bio-Sciences AB, Sweden) were coupled on a CMS chip (GE Healthcare BR-1005-30) at pH 4.5 by using an amine coupling kit supplied by the GE Healthcare. Running buffer for Immobilization was HBS-N pH 7.4 (10 mM HEPES, 150 mM NaCl, pH 7.4, GE Healthcare). For the following kinetic characterization running buffer was PBS-P pH 7.4 (20 mM phosphate buffer, 2.7 mM KCl, 137 mM NaCl, 0.05% surfactant P20). The flow cell was set to 25° C.—and the sample block set to 12° C.—and primed with running buffer twice. […] The dissociation phase was monitored for up to 720 s and triggered by switching from the sample solution to running buffer. The surface was regenerated by washing with 10 mM Glycine pH 1.5 for 60 s at a flow rate of 30 μl/min. Bulk refractive index differences were corrected by subtracting the response obtained from an anti-histidine surface. Blank injections are also subtracted (=double referencing). For calculation of KD and kinetic parameters the Langmuir 1:1 model was used.

Assay [4] has as its target T3, recombinant human CD40_ECD (human, UniProt P25942 21-193).
T3 construct: also called human CD40 extra cellular domain
In words: SPR Biacore T200, huCD40 ECD analyte, apparent KD. The method, then: The capacity of the bispecific constructs to bind human CD40 was assessed by surface plasmon resonance (SPR). […] Bulk refractive index differences were corrected by subtracting the response obtained from a goat anti human F(ab′)2 surface. Blank injections are also subtracted (=double referencing). For calculation of apparent KD and other kinetic parameters the Langmuir 1:1 model was used. The apparent Kd was calculated using the Biacore™ B4000 evaluation software (version 1.1).
(In SPR one partner is held on a chip, and binding of the other changes the refractive index at the surface.)

T1 sequence (Q07011 24-255 limits assumed): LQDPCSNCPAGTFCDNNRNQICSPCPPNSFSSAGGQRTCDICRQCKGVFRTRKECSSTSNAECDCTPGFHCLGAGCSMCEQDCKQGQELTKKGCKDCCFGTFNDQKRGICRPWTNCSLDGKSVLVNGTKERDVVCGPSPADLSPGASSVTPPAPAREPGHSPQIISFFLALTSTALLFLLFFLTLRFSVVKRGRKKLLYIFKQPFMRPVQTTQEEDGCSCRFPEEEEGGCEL

B1: anti-4-1BB (20H4.9) huIgG1 P329GLALA antibody (antibody, V domains shown)
VH: QVQLQQWGAGLLKPSETLSLTCAVYGGSFSGYYWSWIRQSPEKGLEWIGEINHGGYVTYNPSLESRVTISVDTSKNQFSLKLSSVTAADTAVYYCARDYGPGNYDWYFDLWGRGTLVTVSS
VL: EIVLTQSPATLSLSPGERATLSCRASQSVSSYLAWYQQKPGQAPRLLIYDASNRATGIPARFSGSGSGTDFTLTISSLEPEDFAVYYCQQRSNWPPALTFGGGTKVEIK
B1: the “area under the curve (AUC) of NFκB-luciferase activation in Jurkat-hu4-1BB-NFκB-luc2 cells with NIH/3T3-huFAP clone 19” value in assay [1] stood at 15500. In addition, in assay [2], the “EC50 of NFκB-luciferase activation in Jurkat-hu4-1BB-NFκB-luc2 cells with NIH/3T3-huFAP clone 19” value turned out to be 0.321 nM.

B2: anti-4-1BB (20H4.9) huIgG4 (antibody, V domains shown)
VH: B1 VH
VL: B1 VL
For B2, the “area under the curve (AUC) of NFκB-luciferase activation in Jurkat-hu4-1BB-NFκB-luc2 cells with NIH/3T3-huFAP clone 19” value in assay [1] was 13000. In addition, the “EC50 of NFκB-luciferase activation in Jurkat-hu4-1BB-NFκB-luc2 cells with NIH/3T3-huFAP clone 19” value in assay [2] is 0.701 nM.

B3: FAP (4B9)-CD40 Contorsbody P1AE2052 (bispecific antibody, IgG1)
chain 1: not shown
chain 2: DIQMTQSPSSLSASVGDRVTITCRSSQSLVHSNGNTFLHWYQQKPGKAPKLLIYTVSNRFSGVPSRFSGSGSGTDFTLTISSLQPEDFATYFCSQTTHVPWTFGGGTKVEIKRTVAAPSVFIFPPSDEQLKSGTASVVCLLNNFYPREAKVQWKVDNALQSGNSQESVTEQDSKDSTYSLSSTLTLSKADYEKHKVYACEVTHQGLSSPVTKSFNRGECGGGGSGGGGSDKTHTCPPCPAPEAAGGPSVFLFPPKPKDTLMISRTPEVTCVVVDVSHEDPEVKFNWYVDGVEVHNAKTKPREEQYNSTYRVVSVLTVLHQDWLNGKEYKCKVSNKALGAPIEKTISKAKGQPREPQVCTLPPSRDELTKNQVSLSCAVKGFYPSDIAVEWESNGQPENNYKTTPPVLDSDGSFFLVSKLTVDKSRWQQGNVFSCSVMHEALHNHYTQKSLSLSPGKGGGGSGGGGSEVQLLESGGGLVQPGGSLRLSCAASGYSFTGYYIHWVRQAPGKGLEWVGRVIPNAGGTSYNQKFKGRFTISVDNSKNTAYLQMNSLRAEDTAVYYCAREGIYWWGQGTTVTVSSASTKGPSVFPLAPSSKSTSGGTAALGCLVKDYFPEPVTVSWNSGALTSGVHTFPAVLQSSGLYSLSSVVTVPSSSLGTQTYICNVNHKPSNTKVDKKVEPKSCGGGGSGGGGSGGGSGGGGSEIVLTQSPGTLSLSPGERATLSCRASQSVTSSYLAWYQQKPGQAPRLLINVGSRRATGIPDRFSGSGSGTDFTLTISRLEPEDFAVYYCQQGIMLPPTFGQGTKVEIKSSASTKGPSVFPLAPSSKSTSGGTAALGCLVKDYFPEPVTVSWNSGALTSGVHTFPAVLQSSGLYSLSSVVTVPSSSLGTQTYICNVNHKPSNTKVDKKVEPKSC
notes: 2+1 contorsbody; IgG1 Fc knob/hole, P329G LALA
B3: in assay [3], the Kd is 8.31 nM; the koff – broadly, the rate constant with which the complex falls apart – came out at 0.000296 s⁻¹; the kon (in general, a measure of how fast the partners come together) came out at 35600 M⁻¹ s⁻¹; the “t 1/2” value turned out to be 39.1 min. In assay [4], the Kd was found to be 7.2 nM, the koff came out at 0.00681 s⁻¹, the kon is 945000 M⁻¹ s⁻¹ and the “t 1/2” value was 1.7 min.
